Molecular target: E5 C77S mutant
Test: SEC; analytical gel filtration, Superdex 75 10/300 GL, 0.5 ml/min, 50 mM phosphate buffer with 150 mM NaCl, in the presence of a reducing agent; mass from protein standards

Substance: E5 C77S mutant (enzyme)
- stoichiometry N: 6

— article PMC7949104
